According to the supplement of paper PMC10567573:

B1: SLC19A2 (parent)
chain: FASLRPSEPFLTPYLLGPDKNLTE
B2: TOR1AIP2 (parent)
chain: YKYCDHENAAFKDVALVLTVLLEE

Variants of: B1
Assay: protein stability index of a GFP-peptide fusion (GPS, HEK-293T) (PSI 1-6); higher = more stable
Conditions: c terminus: a fixed tail appended
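Further: lentivirally expressed fusions sorted by FACS into six bins by GFP to DsRed ratio, PSI derived from sequencing read proportions per bin multiplied by bin number.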

Protein stability index of substitutions, site by site:
T12: K 1.88, L 1.67, M 1.93, N 2.05, P 1.89, Q 2.3, R 1.74, S 1.93, V 1.28, W 2.17, Y 2.24
P13: A 2.58, C 1.84, D 2.28, E 1.95, F 2.1, G 1.59, H 1.76, I 2.91, K 2.56, L 2.14, M 1.46, N 1.86, Q 1.94, R 1.68, S 1.99, T 1.66, V 2.02, W 1.88, Y 1.58
Y14: A 2.42, C 2.27, D 2.49, E 2.76, F 2.38, G 2.18, H 2.57, I 2.66, K 2.42, L 2.06, M 2.6, N 3.22, P 3.25, Q 2.69, R 2.87, S 2.21, T 2.58, V 2.22, W 1.46
L15: A 1.91, C 2.23, D 2.43, E 2.03, F 1.67, G 1.77, H 1.55, I 1.99, K 1.84, M 2.23, N 2.3, P 1.97, Q 1.76, R 1.68, S 1.79, T 2.19, V 1.86, W 1.44, Y 1.78
L16: A 2.31, C 2.07, D 2.65, E 2.21, F 2.04, G 2.85, H 2.86, I 1.51, K 2.27, M 1.79, N 2.12, P 1.79, Q 1.8, R 2.44, S 2.56, T 1.8, V 1.79, W 2.14, Y 1.3
G17: A 1.81, C 1.05, D 1.59, E 1.86, F 2.15, H 1.75, I 4.07, K 2.23, L 2.22, M 1.7, N 2.06, P 2.62, Q 2.23, R 1.99, S 2.41, T 1.96, V 1.89, W 2.1, Y 1.79
P18: A 1.65, C 1.98, D 2, E 2.27, F 1.54, G 1.51, H 2.53, I 2.31, K 2.12, L 1.8, M 2.06, N 1.48, Q 2, R 1.55, S 1.87, T 1.4, V 1.41, W 1.76, Y 1.61
D19: A 1.56, C 1.44, E 2.24, F 1.87, G 1.75, H 1.57, I 1.92, K 1.58, L 1.58, M 2.1, N 1.46, P 1.67, Q 1.57, R 2.25, S 2.5, T 1.9, V 2.16, W 3.08, Y 2.89
K20: A 2.14, C 1.18, D 2.1, E 1.94, F 1.62, G 2.04, H 1.97, I 2.44, L 2.1, M 1.98, N 2.13, P 1.92, Q 2.05, R 1.94, S 2.29, T 1.45, V 1.84, W 2.04, Y 1.28
N21: A 1.51, C 1.33, D 1.84, E 2.02, F 1.67, G 1.52, H 1.29, I 2.02, K 1.6, L 1.87, M 2.39, P 1.31, Q 1.88, R 1.95, S 1.47, T 1.56, V 2.51, W 2.31, Y 2.42
L22: A 2.1, C 1.96, D 2.65, E 2.03, F 1.62, G 2.04, H 2.16, I 1.86, K 2.34, M 1.59, N 2.35, P 1.86, Q 1.99, R 1.92, S 2.1, T 2.25, V 1.52, W 1.98, Y 1.84
T23: A 2.24, C 2.12, D 1.97, E 2.02, F 1.3, G 1.86, H 2.8, I 1.58, K 2.09, L 1.64, M 1.52, N 1.84, P 2.31, Q 3.16, R 1.42, S 1.7, V 1.29, W 1.65, Y 2.27
E24: A 1.89, C 2.46, D 2.01, F 2.45, G 2.15, H 1.93, I 2.1, K 1.96, L 1.27, M 2.03, N 1.38, P 2.41, Q 2.06, R 2.39, S 1.94, T 1.8, V 1.49, W 2.43, Y 2.08

Variants of: B2
Assay: as above
Conditions: c terminus: a fixed tail appended

Protein stability index of substitutions, site by site:
Y1: C 2.66, D 1.03, H 1.04, K 2.68, L 2.17, N 2.13, P 1.71, R 2.28, T 2.48
K2: D 2.03, L 2.81, M 1.96, N 1.99, S 2.14, W 1.98, Y 2.95
Y3: A 3.02, C 1.51, D 2.78, L 2.89, P 3.07, S 2.41, V 1.83
C4: D 1.05, G 1.35
D5: E 3.08, L 2.43, N 2.94, P 3.2, R 3.8, S 2.61, Y 2.4
H6: C 2.09, G 2.26, I 1.05, L 2.49, P 2, Q 3.06, V 2.57
E7: C 4.53, I 3.39, L 2.71, N 3.84, P 3.94, Q 2.52, R 2.5, S 2.31
N8: E 1.56, M 3.45, Q 2.7, R 4.51, S 2.9, V 1.81, Y 2.07
A9: C 4.55, D 1.4, E 1.75, I 3.88, N 3.72, Q 3.72, W 3.05
A10: G 2.42, I 2.35, K 3.02, L 2.83, M 1.93, P 1.16, R 1.01, S 1.98, W 3.86, Y 3.38
F11: A 2.73, C 1.03, G 3.68, H 2.44, I 1.07, K 1.2, N 1.38, Q 2.6, S 2.04, T 1.49, Y 2.67
K12: A 3.1, C 4.02, D 1.81, Q 3.33, Y 2.97
D13: C 2.1, E 2.46, F 2.83, G 1.75, L 3.1, Q 2.66, S 2.91, T 2.09
